Source: paper PMC8443706, “Functionally diverse heteromeric traps for ligands of the transforming growth factor-β superfamily” (Scientific Reports, 2021)

B1: BMP7 (ligand, human, UniProt P18075 293-431, looked up)
chain: STGSKQRSQNRSKTPKNQEALRMANVAENSSSDQRQACKKHELYVSFRDLGWQDWIIAPEGYAAYYCEGECAFPLNSYMNATNHAIVQTLVHFINPETVPKPCCAPTQLNAISVLYFDDSSNVILKKYRNMVVRACGCH
notes: source: bought: R&D Systems
B2: GDF3 (ligand, human, UniProt Q9NR23 251-364, looked up)
chain: AAIPVPKLSCKNLCHRHQLFINFRDLGWHKWIIAPKGFMANYCHGECPFSLTISLNSSNYAFMQALMHAVDPEIPQAVCIPTKLSPISMLYQDNNDNVILRHYEDMVVDECGCG
notes: source: bought: R&D Systems
B3: activin B (ligand, human, UniProt P09529 293-407, looked up)
chain: GLECDGRTNLCCRQQFFIDFRLIGWNDWIIAPTGYYGNYCEGSCPAYLAGVPGSASSFHTAVVNQYRMRGLNPGTVNSCCIPTKLSTMSMLYFDDEYNIVKRDVPNMIVEECGCA
notes: source: generated in house
B4: BMP9 (ligand, human, UniProt Q9UK05 320-429, looked up)
chain: SAGAGSHCQKTSLRVNFEDIGWDSWIIAPKEYEAYECKGGCFFPLADDVTPTKHAIVQTLVHLKFPTKVGKACCVPTKLSPISVLYKDDMGVPTLKYHYEGMSVAECGCR
notes: source: generated in house
B5: activin A (ligand, human, UniProt P08476 311-426, looked up)
chain: GLECDGKVNICCKKQFFVSFKDIGWNDWIIAPSGYHANYCEGECPSHIAGTSGSSLSFHSTVINHYRMRGHSPFANLKSCCVPTKLRPMSMLYYDDGQNIIKKDIQNMIVEECGCS
notes: source: generated in house
B6: BMP10 (ligand, human, UniProt O95393 317-424, looked up)
chain: NAKGNYCKRTPLYIDFKEIGWDSWIIAPPGYEAYECRGVCNYPLAEHLTPTKHAIIQALVHLKNSQKASKACCVPTKLEPISILYLDKGVVTYKFKYEGMAVSECGCR
notes: source: bought: R&D Systems
B7: BMP6 (ligand, human, UniProt P22004 375-513, looked up)
chain: SASSRRRQQSRNRSTQSQDVARVSSASDYNSSELKTACRKHELYVSFQDLGWQDWIIAPKGYAANYCDGECSFPLNAHMNATNHAIVQTLVHLMNPEYVPKPCCAPTKLNAISVLYFDDNSNVILKKYRNMVVRACGCH
notes: source: bought: R&D Systems
B8: ALK3-Fc:ALK3-Fc homodimer (human ALK3 ECD fused to human IgG1 Fc) (Fc fusion, UniProt P36894 24-152, looked up)
chain: QNLDSMLHGTGMKSDSDQKKSENGVTLAPEDTLPFLKCYCSGHCPDDAINNTCITNGHCFAIIEEDDQGETTLASGCMKYEGSDFQCKDSPKAQLRRTIECCRTNLCNQYLQPTLPPVVIGPFFDGSIR
notes: not shown: Fc (human IgG1), C-terminal, kept
B9: GDF11 (ligand, human, UniProt O95390 299-407, looked up)
chain: NLGLDCDEHSSESRCCRYPLTVDFEAFGWDWIIAPKRYKANYCSGQCEYMFMQKYPHTHLVQQANPRGSAGPCCTPTKMSPINMLYFNDKQQIIYGKIPGMVVDRCGCS
notes: source: generated in house
B10: BMP4 (ligand, human, UniProt P12644 293-408, looked up)
chain: SPKHHSQRARKKNKNCRRHSLYVDFSDVGWNDWIVAPPGYQAFYCHGDCPFPLADHLNSTNHAIVQTLVNSVNSSIPKACCVPTELSAISMLYLDEYDKVVLKNYQEMVVEGCGCR
notes: source: bought: R&D Systems

What was measured:
Settings in all cases: both partners purified
[1] = target: T1, IIB-Fc:ALK4-Fc heterodimer (human ActRIIB ECD-Fc paired with human ALK4 ECD-Fc) (human, UniProt Q13705-1 19-134; P36896-1 24-126); experiment: SPR; same experiment as a1 (Biacore 8K, 37 °C, receptor dimers captured by anti-human Fc, HBS-EP+ with 350 mM NaCl added and 0.5 mg/mL BSA) but fitted with a bivalent analyte model (bold cells of Table 1); the first binding step is the one considered
T1 construct: activin receptor type IIB (ActRIIB) extracellular domain, human, aa 19-134 of NP_001097.2; copies: 1 + 1

[2] = target: T2, IIB-Fc:ALK7-Fc heterodimer (human ActRIIB ECD-Fc paired with human ALK7 ECD-Fc) (human, UniProt Q13705-1 19-134; Q8NER5-1 25-113); experiment: as above
T2 construct: activin receptor type IIB (ActRIIB) extracellular domain, human, aa 19-134 of NP_001097.2; activin receptor-like kinase 7 (ALK7) extracellular domain, human, aa 25-113 of NP_660302.2; copies: 1 + 1

[3] = target: T3, IIB-Fc:ALK3-Fc heterodimer (human ActRIIB ECD-Fc paired with human ALK3 ECD-Fc) (human, UniProt Q13705-1 19-134; P36894 24-152); experiment: SPR; Biacore 8K, 37 °C; Fc-fusion receptor dimers captured by anti-human Fc antibody on a CM5 chip (100-150 RU); ligands injected in two-fold dilution series (300 s association, 600 s dissociation); HBS-EP+ supplemented with 350 mM NaCl and 0.5 mg/mL BSA; 1:1 Langmuir model with a term for mass transport
T3 construct: activin receptor type IIB (ActRIIB) extracellular domain, human, aa 19-134 of NP_001097.2; copies: 1 + 1

[4] = target: T3, IIB-Fc:ALK3-Fc heterodimer (human …); experiment: SPR; same experiment as a1 (Biacore 8K, 37 °C, receptor dimers captured by anti-human Fc, HBS-EP+ with 350 mM NaCl added and 0.5 mg/mL BSA) but fitted with a bivalent analyte model (bold cells of Table 1); the first binding step is the one considered
[5] = target: T4, IIB-Fc:IIB-Fc homodimer (human ActRIIB ECD fused to human IgG1 Fc) (human, UniProt Q13705-1 19-134); experiment: SPR; Biacore 8K, 37 °C; Fc-fusion receptor dimers captured by anti-human Fc antibody on a CM5 chip (100-150 RU); ligands injected in two-fold dilution series (300 s association, 600 s dissociation); HBS-EP+ supplemented with 350 mM NaCl and 0.5 mg/mL BSA; 1:1 Langmuir model with a term for mass transport
T4 construct: activin receptor type IIB (ActRIIB) extracellular domain, human, aa 19-134 of NP_001097.2; Chains linked by disulfide bonds between the Fc domains; a form with murine IgG2a Fc was used only in mice; also called ActRIIB-Fc homodimer; ActRIIB-Fc; not shown: Fc (human IgG1), C-terminal, kept

[6] = target: T1, IIB-Fc:ALK4-Fc heterodimer (human …); experiment: as above
[7] = target: T2, IIB-Fc:ALK7-Fc heterodimer (human …); experiment: as above
BMP6 = target: B7; experiment: as above

T4 sequence (Q13705 19-134): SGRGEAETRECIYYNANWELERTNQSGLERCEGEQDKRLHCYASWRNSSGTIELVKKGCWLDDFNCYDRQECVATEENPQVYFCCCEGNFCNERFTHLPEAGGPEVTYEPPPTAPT
T1 sequence (Q13705 19-134, chain 1 of 2): as the sequence (Q13705 19-134) above
T1 sequence (P36896 24-126, chain 2 of 2): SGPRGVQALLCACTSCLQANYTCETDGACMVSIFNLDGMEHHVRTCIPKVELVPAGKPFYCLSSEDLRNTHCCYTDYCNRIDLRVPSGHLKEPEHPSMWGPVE
T2 sequence (Q13705 19-134, chain 1 of 2): as the sequence (Q13705 19-134) above
T2 sequence (Q8NER5 25-113, chain 2 of 2): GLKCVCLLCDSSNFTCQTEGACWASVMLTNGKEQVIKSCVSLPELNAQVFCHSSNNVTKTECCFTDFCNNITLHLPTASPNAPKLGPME

Binder | Kd [1] [nM] | koff [1] [s⁻¹] | kon [1] [M⁻¹ s⁻¹] | Kd [2] [nM] | koff [2] [s⁻¹] | kon [2] [M⁻¹ s⁻¹] | Kd [3] [nM] | koff [3] [s⁻¹] | kon [3] [M⁻¹ s⁻¹] | Kd [4] [nM] | koff [4] [s⁻¹] | Kd [5] [nM] | koff [5] [s⁻¹] | kon [5] [M⁻¹ s⁻¹] | Kd [6] [nM] | koff [6] [s⁻¹] | kon [6] [M⁻¹ s⁻¹] | Kd [7] [nM] | koff [7] [s⁻¹] | kon [7] [M⁻¹ s⁻¹] | other results
B1 | > 10 | > 0.01 | 800000 | > 10 | > 0.01 | 700000 | 0.165 | 0.00197 | 1.19e+07 |  |  |  |  |  |  |  |  |  |  |  | 
B2 | > 10 | > 0.01 | 1.1e+06 | > 10 | > 0.01 | 1.1e+06 |  |  |  | > 10 | > 0.01 | 0.64 | 0.00188 | 2.9e+06 |  |  |  |  |  |  | kon [4]: 900000 M⁻¹ s⁻¹
B3 |  |  |  |  |  |  | 0.0696 | 0.000335 | 4.8e+06 |  |  | 0.0038 | 2.19e-05 | 5.7e+06 | 0.0153 | 8.07e-05 | 5.3e+06 | 0.0153 | 0.000114 | 7.4e+06 | 
B4 | 1.36 | > 0.01 | 8.9e+06 | 2.3 | > 0.01 | 7.1e+06 |  |  |  | 1.76 | > 0.01 | 0.0933 | 0.0011 | 1.24e+07 |  |  |  |  |  |  | kon [4]: 9.7e+06 M⁻¹ s⁻¹
B5 |  |  |  | 0.41 | 0.00815 | 2e+07 |  |  |  | 0.164 | 0.00733 | 0.0109 | 8.45e-05 | 7.8e+06 | 0.0184 | 0.000139 | 7.4e+06 |  |  |  | kon [4]: 4.47e+07 M⁻¹ s⁻¹
B6 |  |  |  |  |  |  | 0.0335 | 0.000719 | 2.15e+07 |  |  | 0.0065 | 0.000121 | 1.86e+07 | 0.067 | 0.0028 | 4.18e+07 | 0.0706 | 0.00314 | 4.45e+07 | 
B7 |  |  |  |  |  |  | 0.046 | 0.000214 | 4.6e+06 |  |  |  |  |  | 0.758 | 0.00573 | 7.6e+06 | 0.715 | 0.00424 | 5.9e+06 | 
B8 |  |  |  |  |  |  |  |  |  |  |  |  |  |  |  |  |  |  |  |  | Kd (BMP6): 9.03 nM; koff (BMP6): 0.00569 s⁻¹; kon (BMP6): 600000 M⁻¹ s⁻¹
B9 |  |  |  |  |  |  | 0.0485 | 0.000641 | 1.32e+07 |  |  | 0.0039 | 7.56e-05 | 1.94e+07 | 0.0108 | 0.000164 | 1.52e+07 | 0.0474 | 0.000642 | 1.35e+07 | 
B10 |  |  |  |  |  |  | 0.0041 |  |  |  |  | 5.43 |  |  |  |  |  |  |  |  | 
